Reference: patent US20030100094A1 (NEW ENGLAND BIOLABS, published 2003)
Residue numbers refer to the chain shown, from its start. In names and notes the source's numbering stands.

B1: BbvCI restriction endonuclease subunit R1 (wild type, 275 aa, 31 kDa) (enzyme)
chain: MINEDFFIYEQLSHKKNLEQKGKNAFDEETEELVRQAKSGYHAFIEGINYDEVTKLDLNSSVAALEDYISIAKEIEKKHKMFNWRSDYAGSIIPEFLYRIVHVATVKAGLKPIFSTRNTIIEISGAAHREGLQIRRKNEDFALGFHEVDVKIASESHRVISLAVACEVKTNIDKNKLNGLDFSAERMKRTYPGSAYFLITETLDFSPDENHSSGLIDEIYVLRKQVRTKNRVQKAPLCPSVFAELLEDILEISYRASNVKGHVYDRLEGGKLIRV
notes: Recombinant, co-expressed with the R2 subunit in E. coli; also called BbvCI-R1; subunit 1
B2: BbvCI subunit R1 E167G (mutated subunit of nicking enzyme N.BbvCI 1-37) (enzyme)
chain: B1 chain with E167G
notes: The R1 subunit of enzyme mutant 1-37 (R1E167G:R2+), also called Nt.BbvCI; also called EVK->GVK

Legend:
[1] = molecular target: T1, BbvCI subunit R2 E177G (mutated subunit of nicking enzyme N.BbvCI 2-12) (Bacillus brevis); experiment: SDS-PAGE of purified enzyme (subunits co-purify)
T1 construct: The R2 subunit of enzyme mutant 2-12 (R1+:R2E177G), also called Nb.BbvCI; also called ECK->GCK
T1 chain: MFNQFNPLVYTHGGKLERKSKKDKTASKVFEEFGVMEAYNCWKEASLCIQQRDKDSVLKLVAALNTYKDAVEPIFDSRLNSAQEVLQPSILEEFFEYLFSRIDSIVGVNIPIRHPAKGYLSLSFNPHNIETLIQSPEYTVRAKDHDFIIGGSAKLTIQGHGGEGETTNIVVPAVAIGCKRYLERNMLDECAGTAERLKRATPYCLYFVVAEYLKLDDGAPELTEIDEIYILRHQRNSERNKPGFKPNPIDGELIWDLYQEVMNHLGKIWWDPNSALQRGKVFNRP
From the text: (§1) FIG. 9. SDS-PAGE analysis of purified wild type R.BbvCI restriction endonuclease (lanes 2-3: prep. ‘Dan’; lanes 4-6: prep. ‘Diane’), and of purified N.BbvCI nicking endonucleases 2-12 (lanes 7-9), and 1-37 (lanes 10-12). Lane 1 (far left) contains molecular weight markers. All the enzymes preps migrate as two bands of roughly equal intensity signifying that the enzymes are heterodimers with 1:1 subunit stoichiometry.

[2] = molecular target: T2, BbvCI restriction endonuclease subunit R2 (wild type, 285 aa, 32 kDa) (Bacillus brevis); experiment: SDS-PAGE of purified enzyme (subunits co-purify)
T2 construct: Recombinant, co-expressed with the R1 subunit in E. coli; also called BbvCI-R2; subunit 2
T2 chain: T1 chain with G177E
From the text: as §1

Binder | binding result [1] | binding result [2]
B1 | binds | binds
B2 |  | binds
